For one substance, Kd results are on record in PMC7311308.

For this assay, the target named is CD46-D4.

The term Kd denotes a measure of binding affinity in units of concentration. Ad26 knob (domain or fragment): the Kd amounted to 120 nM.
